The supplement of paper PMC10567573

B1: KCNK9 (parent)
chain: DVPDLQSVCSCTCYRSQDYGGRSV

Variants of: B1
Experiment: protein stability index of a GFP-peptide fusion (GPS, HEK-293T) (PSI 1-6); higher = more stable
Conditions: c terminus: a fixed tail appended
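Note: lentivirally expressed fusions sorted by FACS into six bins by GFP to DsRed ratio, PSI derived from sequencing read proportions per bin multiplied by bin number.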

| Variant | protein stability index |
| --- | --- |
| DVPDLQSVCSCTCYVSQDYGGRSV | 1.28 |
| DVPDLQSVCSCTCYDSQDYGGRSV | 3.58 |
| DVPDLQSVCSCTCYHSQDYGGRSV | 2.68 |
| DVPDLQSVCSCTCYTSQDYGGRSV | 2.2 |
| DVPDLQSVCSCTCYKSQDYGGRSV | 2.08 |
| DVPDLQSVCSCTCYLSQDYGGRSV | 1.49 |
| DVPDLQSVCSCTCYQSQDYGGRSV | 1.68 |
| DVPDLQSVCSCTCYPSQDYGGRSV | 2.05 |
| DVPDLQSVCSCTCYWSQDYGGRSV | 2.21 |
| DVPDLQSVCSCTCYYSQDYGGRSV | 1.98 |
| DVPDLQSVCSCTCYGSQDYGGRSV | 2.23 |
| DVPDLQSVCSCTCYSSQDYGGRSV | 2.48 |
| DVPDLQSVCSCTCYASQDYGGRSV | 2.07 |
| DVPDLQSVCSCTCYFSQDYGGRSV | 1.78 |
| DVPDLQSVCSCTCYCSQDYGGRSV | 2.17 |
| DVPDLQSVCSCTCYESQDYGGRSV | 2.52 |
| DVPDLQSVCSCTCYRRQDYGGRSV | 1.65 |
| DVPDLQSVCSCTCYRFQDYGGRSV | 2.78 |
| DVPDLQSVCSCTCYRAQDYGGRSV | 1.2 |
| DVPDLQSVCSCTCYRVQDYGGRSV | 1.03 |
| DVPDLQSVCSCTCYRCQDYGGRSV | 2.5 |
| DVPDLQSVCSCTCYRTQDYGGRSV | 2.18 |
| DVPDLQSVCSCTCYRDQDYGGRSV | 1.85 |
| DVPDLQSVCSCTCYRKQDYGGRSV | 2.08 |

| Variant | protein stability index |
| --- | --- |
| DVPDLQSVCSCTCYRYQDYGGRSV | 2.31 |
| DVPDLQSVCSCTCYRGQDYGGRSV | 1.07 |
| DVPDLQSVCSCTCYRHQDYGGRSV | 1.8 |
| DVPDLQSVCSCTCYRLQDYGGRSV | 2.87 |
| DVPDLQSVCSCTCYREQDYGGRSV | 1.79 |
| DVPDLQSVCSCTCYRIQDYGGRSV | 2.85 |
| DVPDLQSVCSCTCYRPQDYGGRSV | 3.56 |
| DVPDLQSVCSCTCYRNQDYGGRSV | 2.1 |
| DVPDLQSVCSCTCYRMQDYGGRSV | 2.21 |
| DVPDLQSVCSCACYRSQDYGGRSV | 1.78 |
| DVPDLQSVCSCHCYRSQDYGGRSV | 3.13 |
| DVPDLQSVCSCSCYRSQDYGGRSV | 1.31 |
| DVPDLQSVCSCGCYRSQDYGGRSV | 1.52 |
| DVPDLQSVCSCNCYRSQDYGGRSV | 1.62 |
| DVPDLQSVCSCWCYRSQDYGGRSV | 2.72 |
| DVPDLQSVCSCPCYRSQDYGGRSV | 2.05 |
| DVPDLQSVCSCVCYRSQDYGGRSV | 2.47 |
| DVPDLQSVCSCDCYRSQDYGGRSV | 2.79 |
| DVPDLQSVCSCICYRSQDYGGRSV | 1.57 |
| DVPDLQSVCSCCCYRSQDYGGRSV | 1.21 |
| DVPDLQSVCSCYCYRSQDYGGRSV | 1.94 |
| DVPDLQSVCSCLCYRSQDYGGRSV | 1.3 |
| DVPDLQSVCSCMCYRSQDYGGRSV | 1.25 |
| DVPDLQSVCSCQCYRSQDYGGRSV | 1.65 |

| Variant | protein stability index |
| --- | --- |
| DVPDLQSVCSCECYRSQDYGGRSV | 2.4 |
| DVPDLQSVCSCFCYRSQDYGGRSV | 2.76 |
| DVPDLQSVCSCKCYRSQDYGGRSV | 1.58 |
| DVPDLQSVCYCTCYRSQDYGGRSV | 1.92 |
| DVPDLQSVCRCTCYRSQDYGGRSV | 1.33 |
| DVPDLQSVCHCTCYRSQDYGGRSV | 1.43 |
| DVPDLQSVCKCTCYRSQDYGGRSV | 1.76 |
| DVPDLQSVCLCTCYRSQDYGGRSV | 2.39 |
| DVPDLQSVCQCTCYRSQDYGGRSV | 2.25 |
| DVPDLQSVCPCTCYRSQDYGGRSV | 1.52 |
| DVPDLQSVCNCTCYRSQDYGGRSV | 1.47 |
| DVPDLQSVCTCTCYRSQDYGGRSV | 2.47 |
| DVPDLQSVCSCTCYRSTDYGGRSV | 2.39 |
| DVPDLQSVCSCTCYRSMDYGGRSV | 2.76 |
| DVPDLQSVCSCTCYRSKDYGGRSV | 1.86 |
| DVPDLQSVCSCTCYRSRDYGGRSV | 2.58 |
| DVPDLQSVCSCTCYRSADYGGRSV | 1.56 |
| DVPDLQSVCSCTCYRSWDYGGRSV | 2.44 |
| DVPDLQSVCSCTCYRSHDYGGRSV | 2.14 |
| DVPDLQSVCSCTCYRSIDYGGRSV | 1.87 |
| DVPDLQSVCSCTCYRSNDYGGRSV | 1.51 |
| DVPDLQSVCSCTCYRSFDYGGRSV | 1.95 |
| DVPDLQSVCSCTCYRSPDYGGRSV | 1.27 |
| DVPDLQSVCSCTCYRSLDYGGRSV | 3.13 |

| Variant | protein stability index |
| --- | --- |
| DVPDLQSVCSCTCYRSSDYGGRSV | 2.41 |
| DVPDLQSVCSCTCYRSDDYGGRSV | 2.15 |
| DVPDLQSVCSCTCYRSEDYGGRSV | 2.07 |
| DVPDLQSVCSCTCYRSGDYGGRSV | 2.21 |
| DVPDLQSVCSCTCYRSCDYGGRSV | 2.31 |
| DVPDLQSVCSCTCYRSQFYGGRSV | 1.2 |
| DVPDLQSVCSCTCYRSQEYGGRSV | 1.21 |
| DVPDLQSVCSCTCYRSQHYGGRSV | 2.85 |
| DVPDLQSVCSCTCYRSQKYGGRSV | 1.65 |
| DVPDLQSVCSCTCYRSQNYGGRSV | 2.08 |
| DVPDLQSVCSCTCYRSQVYGGRSV | 1.82 |
| DVPDLQSVCSCTCYRSQPYGGRSV | 1.67 |
| DVPDLQSVCSCTCYRSQRYGGRSV | 1.36 |
| DVPDLQSVCSCTCYRSQSYGGRSV | 2.33 |
| DVPDLQSVCSCTCYRSQMYGGRSV | 1.63 |
| DVPDLQSVCSCTCYRSQWYGGRSV | 1.61 |
| DVPDLQSVCSCTCYRSQYYGGRSV | 1.56 |
| DVPDLQSVCSCTCYRSQQYGGRSV | 1.51 |
| DVPDLQSVCSCTCYRSQLYGGRSV | 1.73 |
| DVPDLQSVCSCTCYRSQCYGGRSV | 1.97 |
| DVPDLQSVCSCTCYRSQTYGGRSV | 1.83 |
| DVPDLQSVCSCTCYRSQDYSGRSV | 2.07 |
